We go through 1 substance from paper PMC8024992.

This assay has as its target ubiquitin-rhodamine (Ub-Rho) (UniProt P0CG48).

For the substance “USP1^WT-UAF1 (active) (from UniProt O94782;Q8TAF3) (complex)”, the KM (= k off/k on) from the KinTek global fit of activity data; +UAF1, Ub-Rho was 5.94 µM.
